{"source": "IntAct's records for PubMed 31515488", "parents": {"B1": {"name": "Tektin-3 (Homo sapiens), Q9BXF9 (parent)", "chain": "MERVGCTLTTTYAHPRPTPTNFLPAISTMASSYRDRFPHSNLTHSLSLPWRPSTYYKVASNSPSVAPYCTRSQRVSENTMLPFVSNRTTFFTRYTPDDWYRSNLTNYQESNTSRHNSEKLRVDTSRLIQDKYQQTRKTQADTTQNLGERVNDIGFWKSEIIHELDEMIGETNALTDVKKRLERALMETEAPLQVARECLFHREKRMGIDLVHDEVEAQLLTEVDTILCCQERMKLHLDKAIAQLAANRASQHELEKDLSDKQTAYRIDDKCHHLRNTSDGVGYFRGVERVDATVSVPESWAKFTDDNILRSQSERAASAKLRDDIENLLVVTANEMWNQFNKVNLSFTNRIAETADAKNKIQTHLAKTLQEIFQTEMTIESIKKAIKDKTAFLKVAQTRLDERTRRPNIELCRDMAQLRLVNEVHEVDDTIQTLQQRLRDAEDTLQSLVHIKATLEYDLAVKANSLYIDQEKCMSMRKSYPNTLRLVGFC", "partner": "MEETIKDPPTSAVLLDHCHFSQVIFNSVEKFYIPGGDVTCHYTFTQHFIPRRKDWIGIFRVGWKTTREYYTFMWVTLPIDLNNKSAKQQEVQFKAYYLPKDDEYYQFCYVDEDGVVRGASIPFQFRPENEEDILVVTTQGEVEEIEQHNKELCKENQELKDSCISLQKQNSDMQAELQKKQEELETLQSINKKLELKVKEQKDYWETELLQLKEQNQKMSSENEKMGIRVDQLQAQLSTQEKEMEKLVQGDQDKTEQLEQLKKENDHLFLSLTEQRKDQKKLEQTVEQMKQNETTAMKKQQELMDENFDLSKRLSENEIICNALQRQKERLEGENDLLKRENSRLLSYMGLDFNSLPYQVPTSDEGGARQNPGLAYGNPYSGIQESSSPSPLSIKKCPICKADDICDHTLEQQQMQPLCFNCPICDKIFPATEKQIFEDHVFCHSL"}, "B2": {"name": "Serine/threonine-protein kinase PAK 5 (Homo sapiens), Q9P286 (parent)", "chain": "MFGKKKKKIEISGPSNFEHRVHTGFDPQEQKFTGLPQQWHSLLADTANRPKPMVDPSCITPIQLAPMKTIVRGNKPCKETSINGLLEDFDNISVTRSNSLRKESPPTPDQGASSHGPGHAEENGFITFSQYSSESDTTADYTTEKYREKSLYGDDLDPYYRGSHAAKQNGHVMKMKHGEAYYSEVKPLKSDFARFSADYHSHLDSLSKPSEYSDLKWEYQRASSSSPLDYSFQFTPSRTAGTSGCSKESLAYSESEWGPSLDDYDRRPKSSYLNQTSPQPTMRQRSRSGSGLQEPMMPFGASAFKTHPQGHSYNSYTYPRLSEPTMCIPKVDYDRAQMVLSPPLSGSDTYPRGPAKLPQSQSKSGYSSSSHQYPSGYHKATLYHHPSLQSSSQYISTASYLSSLSLSSSTYPPPSWGSSSDQQPSRVSHEQFRAALQLVVSPGDPREYLANFIKIGEGSTGIVCIATEKHTGKQVAVKKMDLRKQQRRELLFNEVVIMRDYHHDNVVDMYSSYLVGDELWVVMEFLEGGALTDIVTHTRMNEEQIATVCLSVLRALSYLHNQGVIHRDIKSDSILLTSDGRIKLSDFGFCAQVSKEVPKRKSLVGTPYWMAPEVISRLPYGTEVDIWSLGIMVIEMIDGEPPYFNEPPLQAMRRIRDSLPPRVKDLHKVSSVLRGFLDLMLVREPSQRATAQELLGHPFLKLAGPPSCIVPLMRQYRHH", "partner": "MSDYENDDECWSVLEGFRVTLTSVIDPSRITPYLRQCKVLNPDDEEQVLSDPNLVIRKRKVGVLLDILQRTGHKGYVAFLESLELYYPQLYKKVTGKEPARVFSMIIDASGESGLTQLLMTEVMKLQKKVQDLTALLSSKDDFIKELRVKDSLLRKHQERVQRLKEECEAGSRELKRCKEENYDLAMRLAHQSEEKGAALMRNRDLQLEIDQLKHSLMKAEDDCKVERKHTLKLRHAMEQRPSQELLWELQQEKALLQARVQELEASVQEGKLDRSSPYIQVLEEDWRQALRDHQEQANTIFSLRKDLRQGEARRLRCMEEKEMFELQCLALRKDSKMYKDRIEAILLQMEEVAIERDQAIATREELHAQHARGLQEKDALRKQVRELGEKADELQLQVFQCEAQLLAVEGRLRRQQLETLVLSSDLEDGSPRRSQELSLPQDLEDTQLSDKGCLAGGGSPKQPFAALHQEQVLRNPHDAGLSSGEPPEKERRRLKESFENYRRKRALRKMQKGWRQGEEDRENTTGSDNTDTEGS"}, "B3": {"name": "Cysteine-rich C-terminal protein 1 (Homo sapiens), Q9UGL9 (parent)", "chain": "MSSQQSAVSAKGFSKGSSQGPAPCPAPAPTPAPASSSSCCGSGRGCCGDSGCCGSSSTSCCCFPRRRRRQRSSGCCCCGGGSQRSQRSNNRSSGCCSGC", "partner": "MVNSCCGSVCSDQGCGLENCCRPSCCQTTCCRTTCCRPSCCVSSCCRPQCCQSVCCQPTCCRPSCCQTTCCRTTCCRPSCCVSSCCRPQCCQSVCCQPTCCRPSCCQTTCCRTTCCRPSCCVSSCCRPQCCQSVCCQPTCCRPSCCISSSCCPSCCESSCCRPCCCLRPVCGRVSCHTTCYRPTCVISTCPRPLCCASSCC"}, "B4": {"name": "Baculoviral IAP repeat-containing protein 7 (Homo sapiens), Q96CA5-1 (parent)", "chain": "MGPKDSAKCLHRGPQPSHWAAGDGPTQERCGPRSLGSPVLGLDTCRAWDHVDGQILGQLRPLTEEEEEEGAGATLSRGPAFPGMGSEELRLASFYDWPLTAEVPPELLAAAGFFHTGHQDKVRCFFCYGGLQSWKRGDDPWTEHAKWFPSCQFLLRSKGRDFVHSVQETHSQLLGSWDPWEEPEDAAPVAPSVPASGYPELPTPRREVQSESAQEPGGVSPAEAQRAWWVLEPPGARDVEAQLRRLQEERTCKVCLDRAVSIVFVPCGHLVCAECAPGLQLCPICRAPVRSRVRTFLS"}}}
{"variants_of": "B1", "settings": "with caco2_human CALCOCO2, Q13137"}
{"variant": "G282A", "effect of a mutation on the interaction": "with no effect"}
{"variant": "R196Q", "effect of a mutation on the interaction": "with no effect"}
{"variant": "Q129K", "effect of a mutation on the interaction": "with no effect"}
{"variants_of": "B2", "settings": "with card9_human CARD9, Q9H257"}
{"variant": "R335P", "effect of a mutation on the interaction": "with no effect"}
{"variants_of": "B3", "settings": "with kr412_human KRTAP4-12, Q9BQ66"}
{"variant": "G20S", "effect of a mutation on the interaction": "with no effect"}
{"variants_of": "B4", "settings": "with phf1_human PHF1, O43189"}
{"variant": "H164R", "effect of a mutation on the interaction": "with no effect"}
{"variants_of": "B4", "settings": "with ddx6_human DDX6, P26196"}
{"variant": "H164R", "effect of a mutation on the interaction": "with no effect"}
{"variants_of": "B4", "settings": "with birc2_human BIRC2, Q13490"}
{"variant": "H164R", "effect of a mutation on the interaction": "with no effect"}
{"variants_of": "B4", "settings": "with ddx6_human DDX6, P26196", "remark": "another data set of the same source"}
{"variant": "H164R", "effect of a mutation on the interaction": "with no effect"}
{"variants_of": "B4", "settings": "with casp9_human CASP9, P55211"}
{"variant": "H164R", "effect of a mutation on the interaction": "with no effect"}
{"variants_of": "B4", "settings": "with birc2_human BIRC2, Q13490", "remark": "another data set of the same source"}
{"variant": "H164R", "effect of a mutation on the interaction": "with no effect"}
{"variants_of": "B4", "settings": "with phf1_human PHF1, O43189", "remark": "another data set of the same source"}
{"variant": "H164R", "effect of a mutation on the interaction": "with no effect"}
{"variants_of": "B4", "settings": "with casp9_human CASP9, P55211", "remark": "another data set of the same source"}
{"variant": "H164R", "effect of a mutation on the interaction": "with no effect"}
